B1: library; numbered along this chain (parent)
chain: MRKPRAAVGSGHRKQAASQEGRQKHAKNNSQAKPSACDGLARQPEEVVLQASVSSYHLFRDVAEVTAFRGSLLSWYDQEKRDLPWRRRAEDEMDLDRRAYAVWVSEVMLQQTQVATVINYYTGWMQKWPTLQDLASASLEEVNQLWAGLGYYSRGRRLQEGARKVVEELGGHMPRTAETLQQLLPGVGRYTAGAIASIAFGQATGVVDGNVARVLCRVRAIGADPSSTLVSQQLWGLAQQLVDPARPGDFNQAAMELGATVCTPQRPLCSQCPVESLCRARQRVEQEQLLASGSLSGSPDVEECAPNTGQCHLCLPPSEPWDQTLGVVNFPRKASRKPPREESSATCVLEQPGALGAQILLVQRPNSGLLAGLWEFPSVTWEPSEQLQRKALLQELQRWAGPLPATHLRHLGEVVHTFSHIKLTYQVYGLALEGQTPVTTVPPGARWLTQEEFHTAAVSTAMKKVFRVYQGQQPGTCMGSKRSQVSSPCSRKKPRMGQQVLDNFFRSHISTDAHSLNSAAQ

Variants of: B1
Assay: 8OG:A repair function score (normalized; synonymous = 0, nonsense = -1) (normalized log-likelihood score); higher = more repair activity (WT-like)
Conditions: with 8OG:A DNA repair reporter (GFP) in HEK-293 MUTYH KO cells
Description: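 Saturation mutagenesis (NNN codon scan) of the MUTYH cDNA (521-aa nuclear isoform NM_001048174.1 / NP_001041639), stably expressed under doxycycline induction in HEK-293 MUTYH knockout cells. Cells were co-transfected with an 8OG:A-bearing GFP repair reporter plus mCherry and sorted 72 h later into GFP+ and GFP− bins, three replicates per tile. The Rosace log2 enrichment (GFP+ vs GFP−) was converted per tile to a normalized function score with synonymous variants centered at 0 and nonsense variants (codons 1-471) at -1; low-abundance variants were removed.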

Variant	8OG:A repair function score
A519D	0.0164
E92P	-0.0511
P339C	-0.157
C278K	-1.26
P273T	-0.453
R409G	-0.342
R398E	-0.407
S276W	-0.0968
P129F	-0.742
A345T	-0.111
R154G	-1.12
P44N	-0.0778
Q271I	-0.0397
L392T	-0.777
Y100S	-1.56
S52G	-0.00057
A457Q	-0.402
L139I	0.139
E302A	-0.273
P404N	0.336
M462L	-0.449
L370S	-0.406
Q472C	-0.0129
C314I	-0.652

Variant	8OG:A repair function score
R2S	0.049
H407M	-0.456
D322S	-0.0836
R98A	-0.175
M125C	-0.306
L373V	-0.504
E160T	-0.0143
F418H	-0.4
P377V	-0.171
P306N	-0.00787
Q288R	-0.00978
S318G	-0.0532
Q323K	-0.0269
M462K	-1.21
T116E	-0.305
P339Y	-0.144
V47W	0.0191
Q43P	0.054
A223N	-0.465
M108L	-0.662
A177C	-0.0436
G201A	-0.14
R495P	0.0276
V104Y	-1.27

Variant	8OG:A repair function score
A334I	-0.198
N251W	-0.879
R189N	-0.421
Q498I	0.0195
S197C	-0.73
V211A	-0.477
V47R	-0.00231
S136R	0.0299
E167W	-0.0936
L289Q	0.015
Q363N	-0.441
L139E	-0.17
D94L	-0.105
S52V	-0.00119
D77P	-0.464
A461I	-0.152
Q78W	-0.0301
L58C	-0.0122
V214P	-1.01
R467L	-0.0425
M125S	-0.734
M173I	0.0625
E79N	-0.0384
A67C	0.00689

Variant	8OG:A repair function score
Q435L	0.0233
H420C	-0.465
R340G	-0.129
D61N	-0.0108
Q202A	0.00201
G171N	-0.204
L72T	-0.206
N307Q	-0.00475
Q358G	-0.334
Q181Y	0.00604
S490P	-0.0172
R409P	-0.541
Q132I	-0.0124
R266D	-0.269
E178W	-0.0455
W128R	-0.696
N143S	-0.133
Y190W	-0.479
K481P	0.00979
Q521T	-0.0167
P84G	-0.775
Q386I	0.129
E141V	-0.27
T122E	-0.0848

Variant	8OG:A repair function score
S344M	0.0335
L325T	-0.113
C304L	-0.16
L95I	-0.0112
L49K	-0.236
A212D	-0.814
V242D	-0.978
G209H	-0.659
T324C	-0.0556
T176C	-0.0512
I359A	-0.485
E341R	0.0117
H312S	-0.0172
A461R	-0.632
T460I	-0.102
A253I	-1.02
S292C	-0.0199
C304N	-0.439
N251M	-0.915
L392F	-0.647
C477M	0.00893
A305C	-0.0298
N210P	-0.658
L257V	-0.182

Variant	8OG:A repair function score
E375S	-0.243
A371I	-0.776
G297K	0.0192
S292Y	0.00788
D249H	-0.28
V230G	-0.152
C314T	-0.575
V427A	-0.455
S138F	-0.378
P404I	0.118
L289W	-0.0271
L295P	0.0289
V284S	-0.0426
S54E	0.00656
Q286D	-0.0961
R446G	-0.67
S378P	-0.772
T380H	-0.465
Q252K	-0.999
S480L	-0.0111
K464Q	-0.245
V348K	-1.21
R42S	0.0235
S226Y	-0.198

Variant	8OG:A repair function score
V206K	-1.01
Q470H	-0.029
R88V	-0.0028
D61F	-0.794
E341N	-0.0613
K164C	-0.21
D133R	-0.0865
L360T	-1.26
L58H	0.00605
A280C	-0.398
T66V	0.00408
H514I	-0.00558
E106S	-1.21
Q50F	-0.0563
T228H	0.457
M255K	-1.01
Q426M	-0.183
E285M	-9.17e-05
S318A	0.0892
L290H	-0.0116
V207F	-0.875
Q239A	-0.104
L180T	-0.439
Q426D	-0.46

Variant	8OG:A repair function score
S138W	-0.724
Q288H	0.00465
S515F	-0.00769
V301H	-0.166
H514S	-0.0171
R446F	-0.449
T511N	-0.0682
Q521V	-0.0096
H410K	-0.0723
K337H	-0.0482
L169Q	-0.00403
V328P	-0.507
V62I	-0.00659
P331H	-0.439
K493A	0.0129
A253R	-1.01
R2Y	-0.155
M173F	-0.014
D243R	-0.99
G193H	-0.0997
E302I	-0.284
M93Q	0.00486
Q394M	-0.148
A203R	0.00374

Variant	8OG:A repair function score
S54I	-0.00479
Q386S	-0.0961
A280W	-0.57
S54V	-0.0294
V465K	-1.19
E167A	-0.18
L169S	-0.284
V485W	-0.0552
S74G	-0.00226
I509D	-0.00523
E375G	-0.0637
P247W	-1.03
N366A	0.0425
C304R	-0.464
Q252F	-1.02
E341H	0.0806
E452I	-0.47
Q521K	-0.0417
C262E	-1.28
A305R	-0.0332
A357W	-0.104
P442M	0.0715
Q159C	0.0194
T191M	-0.127

Variant	8OG:A repair function score
A194I	-0.291
V142S	-0.632
I118A	-0.0372
V379N	-0.658
L325P	-0.354
E106T	-1.01
L408C	0.18
L58K	-0.021
F68Q	-0.906
S335H	0.0625
Y120M	-0.0214
W381E	0.244
H508M	-0.0245
Q111A	-0.258
E413C	-0.201
A405C	0.144
P377E	-1.13
P474Y	-0.0117
C489K	-0.0226
M255Q	-0.993
W381M	0.148
G297N	-0.00835
C216R	-0.931
R364C	-0.262

Variant	8OG:A repair function score
A6L	0.01
R163M	-0.0916
T346V	0.0305
H312F	-0.000263
D249T	-0.459
H407Q	0.0383
V362Q	-0.414
D322R	-0.044
A220P	-0.978
A345Q	-0.264
N251H	-0.943
G186P	-0.924
L501Y	-0.0132
K492A	0.0165
S490I	-0.0509
Y56M	0.00205
L315Y	0.0406
A194H	-1.31
V500W	-0.015
H172Q	0.0285
V107A	0.0286
W235Q	-0.314
R87N	-0.000681
T228N	-0.0359

Variant	8OG:A repair function score
L393D	-0.369
G475T	-0.0403
T260G	-0.126
T424K	-0.203
Q394N	0.483
E319C	-0.02
D300K	-0.325
A196G	-0.309
T260Y	-0.385
V107P	-1.01
N366D	-0.00541
G497H	-0.0394
A259H	-0.138
L289S	-0.0139
Q426P	-0.928
V438H	-0.17
W374C	-0.633
S136H	-0.136
S335F	-0.0626
E341L	-0.00796
I359H	-0.143
E341F	-0.0534
P129K	-0.414
Q182N	-0.133

Variant	8OG:A repair function score
A220N	-0.671
E395V	-0.0171
Q239G	-0.228
S270P	-0.0287
L134F	-0.116
Q239R	-0.232
K390A	-0.201
R189G	-0.299
P244A	-0.238
L237F	-0.257
R409E	0.0558
Q450D	-0.113
R491G	0.00614
I421Q	-0.51
A135K	-0.317
F466G	-0.584
P244D	-0.291
F505A	0.00138
N210S	-1.03
V48F	-0.0263
V261N	-0.379
E168D	-0.0557
E141P	-0.499
Q397K	-0.304

Variant	8OG:A repair function score
A220I	-0.848
A520L	-0.0269
W124C	-0.794
D133L	-0.0567
S515P	-0.0381
G39H	-0.44
Q50D	0.088
G209L	-0.534
L290F	-0.0363
Q43R	0.0791
W235F	-0.292
M108N	-1.18
L257N	-1.21
E303Y	-0.231
G148N	-0.669
T122P	0.0277
D133Q	-0.164
R86G	-1.82
F376M	-0.13
R69N	-1.56
P383K	-0.1
E385G	-0.126
